The source of these data is PMC4471001.

The target of experiment [1] is human importin α5 (human) (UniProt P52294). Kind of experiment: fluorescence polarisation; S2 Fig D; method not named for this panel, taken as the paper's fluorescence polarization assay; dark and blue light, binding light independent. (In general: In fluorescence polarisation assays a small probe gives low polarisation when free and higher when bound to something large.)

For experiment [2] the target is unchanged. Description: fluorescence polarisation; competition, dark (value read after 5 minutes in absence of light); 25 nM TAMRA peptide …, 50 mM Tris pH 7.5, 100 mM NaCl, 1 mM DTT, 25°C; Kd from IC50.
For experiment [3], the target named is human importin α7 (human) (UniProt O60684). Described as above.
For experiment [4], the target named is human importin α5 (human) (UniProt P52294). Kind of experiment: fluorescence polarisation; competition, under blue light (455 nm, 6 mW/cm^2; value read after 2 minutes of illumination); 25 nM TAMRA peptide …, 50 mM Tris pH 7.5, 100 mM NaCl, 1 mM DTT, 25°C; Kd from IC50.
The target in experiment [5] is human importin α7 (human) (UniProt O60684). Described as above.

human importin α5 (human), sequence (P52294 whole entry): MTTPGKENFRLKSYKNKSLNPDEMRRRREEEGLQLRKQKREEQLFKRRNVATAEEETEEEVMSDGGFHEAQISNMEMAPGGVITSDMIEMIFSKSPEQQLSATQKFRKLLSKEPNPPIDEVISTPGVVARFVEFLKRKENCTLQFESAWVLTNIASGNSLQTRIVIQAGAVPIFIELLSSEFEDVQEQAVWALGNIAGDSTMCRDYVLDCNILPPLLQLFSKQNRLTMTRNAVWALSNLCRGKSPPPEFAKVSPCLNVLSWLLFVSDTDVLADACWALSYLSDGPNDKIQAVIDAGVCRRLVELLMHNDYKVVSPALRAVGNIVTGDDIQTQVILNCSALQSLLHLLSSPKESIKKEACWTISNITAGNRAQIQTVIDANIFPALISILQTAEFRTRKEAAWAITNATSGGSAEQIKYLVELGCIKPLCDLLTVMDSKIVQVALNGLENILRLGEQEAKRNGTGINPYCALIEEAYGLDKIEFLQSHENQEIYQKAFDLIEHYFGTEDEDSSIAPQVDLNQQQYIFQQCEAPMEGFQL

By Kd is commonly meant the free concentration of one partner at which half of the binding sites on the other are occupied at equilibrium, for simple one-to-one binding. Read a high Kd as weaker binding. “AsLOV2cMyc (from UniProt O49003 404-546)” yielded a Kd in experiment [1] of 1 nM.

Turning to “AsLOV2cNLS (from UniProt O49003 404-546) (designed binder)”, the dissociation constant Kd stood at 1500 nM in experiment [2], 2000 nM in experiment [3], 250 nM in experiment [4] and 340 nM in experiment [5].
